From article PMC10023571, “EGOC inhibits TOROID polymerization by structurally activating TORC1” (Nature Structural & Molecular Biology, 2023)

B1: Kog1 (Kog1-TAP) in the TOROID (natural protein, S. cerevisiae)
chain: MPEIYGPQPLKPLNTVMRHGFEEQYQSDQLLQSLANDFIFYFDDKRHKTNGNPIPEEDKQRDVNRYYQPITDWKIMKDRQKTVSAALLLCLNLGVDPPDVMKTHPCARVEAWVDPLNFQDSKKAIEQIGKNLQAQYETLSLRTRYKQSLDPCVEDVKRFCNSLRRTSKEDRILFHYNGHGVPKPTKSGEIWVFNRGYTQYIPVSLYDLQTWLGAPCIFVYDCNSAENILINFQKFVQKRIKDDEEGNHDVAAPSPTSAYQDCFQLASCTSDELLLMSPELPADLFSCCLTCPIEISIRIFLMQSPLKDSKYKIFFENSTSNQPFGDSKNSFKSKIPNVNIPGMLSDRRTPLGELNWIFTAITDTIAWTSLPRPLFKKLFRHDLMIAALFRNFLLAKRIMPWYNCHPVSDPELPDSITTHPMWKSWDLAMDEVLTKIVIDLKNAPPATALESQMILQQQETLQNGGSSKSNAQDTKAGSIQTQSRFAVANLSTMSLVNNPALQSRKSISLQSSQQQLQQQQQQQQQFTGFFEQNLTAFELWLKYASNVRHPPEQLPIVLQVLLSQVHRIRALVLLSRFLDLGPWAVYLSLSIGIFPYVLKLLQSPAPELKPILVFIWARIMSIDYKNTQSELIKEKGYMYFVTVLVPDWGVNGMSATNGSAMINSGNPLTMTASQNINGPSSRYYERQQGNRTSNLGHNNLPFYHSNDTTDEQKAMAVFVLASFVRNFPLGQKNCFSLELVNKLCFYIDNSEIPLLRQWCVILLGLLFADNPLNRFVCMNTGAVEILLKSLKDPVPEVRTASIFALKHFISGFQDAEVILRLQQEFEEQYQQLHSQLQHLQNQSHLQQQQSQQQQQHLEQQQMKIEKQIRHCQVMQNQLEVIDLRKLKRQEIGNLISILPLINDGSSLVRKELVVYFSHIVSRYSNFFIVVVFNDLLEEIKLLEKSDINTRNTSDKYSVSQGSIFYTVWKSLLILAEDPFLENKELSKQVIDYILLELSAHKELGGPFAVMEKFLLKRSSKAHQTGKFGFNSSQVQFVKSSLRSFSPNERVDNNAFKKEQQQHDPKISHPMRTSLAKLFQSLGFSESNSDSDTQSSNTSMKSHTSKKGPSGLYLLNGNNNIYPTAETPRFRKHTEPLQLPLNSSFLDYSREYFQEPQMKKQEADEPGSVEYNARLWRRNRNETIIQETQGEKKLSIYGNWSKKLISLNNKSQPKLMKFAQFEDQLITADDRSTITVFDWEKGKTLSKFSNGTPFGTKVTDLKLINEDDSALLLTGSSDGVIKIYRDYQDVDTFKIVSAWRGLTDMLLTPRSTGLLTEWLQIRGSLLTTGDVKVIRVWDAHTETVEVDIPAKTSSLITSLTADQLAGNIFVAGFADGSLRVYDRRLDPRDSMIRRWRAGNDKQGVWINNVHLQRGGYRELVSGATNGVVELWDIRSEDPVESFVDQNVTSQYGSQQKPTTMTCMQVHEHAPIIATGTKQIKIWTTSGDLLNSFKNSHNNGVTSTLAATGIPKSLSYSSTSDAFLSSMAFHPHRMMIAATNSHDSIVNIYKCEDERIDYF
notes: Kog1, S. cerevisiae, expressed as KOG1-TAP; source: S. cerevisiae KOG1-TAP ∆tor1 cells grown PDS, purified as TOROID

What was measured:
Assay in all cases: cryo-EM structure; TOROID filaments purified from KOG1-TAP ∆tor1 cells grown PDS (subunits co-purified from yeast); helical reconstruction, then signal subtraction and single particle analysis, 3.87 Å
Tor2 in the TOROID = target: T1, Tor2 in the TOROID (S. cerevisiae (endogenous in S. …, UniProt P32600 1-2474)); conditions: both partners purified
T1 construct: Tor2, S. cerevisiae; source: S. cerevisiae KOG1-TAP ∆tor1 cells grown PDS, purified as TOROID

[1] = target: B1; conditions: both partners purified
[2] = target: the molecule itself

T1 sequence (P32600 whole entry): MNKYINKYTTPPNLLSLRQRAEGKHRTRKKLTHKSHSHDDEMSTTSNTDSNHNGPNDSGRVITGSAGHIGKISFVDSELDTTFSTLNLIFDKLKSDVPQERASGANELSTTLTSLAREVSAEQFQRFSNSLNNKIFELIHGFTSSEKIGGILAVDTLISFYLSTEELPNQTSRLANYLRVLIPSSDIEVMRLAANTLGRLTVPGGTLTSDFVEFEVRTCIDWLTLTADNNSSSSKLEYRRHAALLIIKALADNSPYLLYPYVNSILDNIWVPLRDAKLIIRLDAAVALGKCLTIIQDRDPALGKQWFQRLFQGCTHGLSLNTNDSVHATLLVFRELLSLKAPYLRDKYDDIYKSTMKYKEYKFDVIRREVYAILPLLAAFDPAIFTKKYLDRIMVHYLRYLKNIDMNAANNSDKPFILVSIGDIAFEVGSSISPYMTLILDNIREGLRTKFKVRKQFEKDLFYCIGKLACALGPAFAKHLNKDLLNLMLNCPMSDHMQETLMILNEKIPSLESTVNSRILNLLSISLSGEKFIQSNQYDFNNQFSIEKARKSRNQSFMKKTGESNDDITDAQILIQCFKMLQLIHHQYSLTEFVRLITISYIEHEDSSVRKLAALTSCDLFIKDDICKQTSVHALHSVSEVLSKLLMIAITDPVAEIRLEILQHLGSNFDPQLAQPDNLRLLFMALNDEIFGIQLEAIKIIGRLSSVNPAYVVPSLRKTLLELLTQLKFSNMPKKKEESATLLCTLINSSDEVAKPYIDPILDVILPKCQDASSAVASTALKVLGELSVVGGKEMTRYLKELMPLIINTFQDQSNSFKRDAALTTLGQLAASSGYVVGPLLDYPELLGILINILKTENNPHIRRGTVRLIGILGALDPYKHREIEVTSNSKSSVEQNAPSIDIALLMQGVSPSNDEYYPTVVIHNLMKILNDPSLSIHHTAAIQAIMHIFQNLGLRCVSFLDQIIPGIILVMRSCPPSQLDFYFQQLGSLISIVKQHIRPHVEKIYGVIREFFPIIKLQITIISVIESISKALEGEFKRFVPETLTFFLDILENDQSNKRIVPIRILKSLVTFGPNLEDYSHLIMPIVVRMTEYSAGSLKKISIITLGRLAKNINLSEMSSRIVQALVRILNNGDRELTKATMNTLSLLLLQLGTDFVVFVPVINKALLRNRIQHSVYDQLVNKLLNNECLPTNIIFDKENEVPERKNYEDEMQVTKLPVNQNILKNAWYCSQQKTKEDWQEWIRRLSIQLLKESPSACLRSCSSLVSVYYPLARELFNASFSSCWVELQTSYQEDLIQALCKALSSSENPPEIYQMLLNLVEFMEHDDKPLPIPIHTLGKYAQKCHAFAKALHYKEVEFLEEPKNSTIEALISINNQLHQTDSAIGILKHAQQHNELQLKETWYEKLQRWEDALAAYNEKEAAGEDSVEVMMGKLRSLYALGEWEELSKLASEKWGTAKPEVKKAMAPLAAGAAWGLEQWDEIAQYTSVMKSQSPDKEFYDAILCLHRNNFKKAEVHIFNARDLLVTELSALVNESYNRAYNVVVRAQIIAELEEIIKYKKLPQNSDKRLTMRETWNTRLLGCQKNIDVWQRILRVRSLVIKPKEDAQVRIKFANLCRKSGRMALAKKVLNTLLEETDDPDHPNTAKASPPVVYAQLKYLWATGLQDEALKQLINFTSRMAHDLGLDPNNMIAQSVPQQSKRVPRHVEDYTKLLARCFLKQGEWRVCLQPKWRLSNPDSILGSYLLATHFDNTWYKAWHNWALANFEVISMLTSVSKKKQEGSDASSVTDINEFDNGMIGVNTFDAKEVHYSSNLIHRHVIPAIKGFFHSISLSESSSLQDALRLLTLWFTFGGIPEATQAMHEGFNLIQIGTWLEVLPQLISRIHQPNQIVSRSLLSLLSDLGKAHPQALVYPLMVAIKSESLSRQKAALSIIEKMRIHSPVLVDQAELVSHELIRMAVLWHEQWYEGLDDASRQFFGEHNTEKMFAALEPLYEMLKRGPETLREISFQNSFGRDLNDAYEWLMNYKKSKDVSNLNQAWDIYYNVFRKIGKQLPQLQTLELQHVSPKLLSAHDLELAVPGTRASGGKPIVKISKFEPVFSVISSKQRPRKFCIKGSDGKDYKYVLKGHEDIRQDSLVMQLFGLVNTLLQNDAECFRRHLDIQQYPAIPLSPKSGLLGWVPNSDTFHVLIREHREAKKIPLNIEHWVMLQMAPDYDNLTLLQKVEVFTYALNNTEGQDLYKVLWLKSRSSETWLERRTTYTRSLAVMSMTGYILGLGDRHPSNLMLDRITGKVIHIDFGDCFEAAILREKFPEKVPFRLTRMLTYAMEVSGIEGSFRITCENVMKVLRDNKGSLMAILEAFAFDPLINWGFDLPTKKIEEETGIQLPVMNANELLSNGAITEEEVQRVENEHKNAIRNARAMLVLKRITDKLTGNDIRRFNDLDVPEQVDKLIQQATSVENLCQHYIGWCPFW

| Binder | binding result (Tor2 in the TOROID) | binding result [1] | binding result [2] |
| --- | --- | --- | --- |
| Lst8 in the TOROID (natural protein, UniProt P41318 1-303, looked up, Lst8, S. cerevisiae; source: S. cerevisiae KOG1-TAP ∆tor1 cells grown PDS, purified as TOROID) MSVILVSAGYDHTIRFWEALTGVCSRTIQHSDSQVNRLEITNDKKLLATAGHQNVRLYDIRTTNPNPVASFEGHRGNVTSVSFQQDNRWMVTSSEDGTIKVWDVRSPSIPRNYKHNAPVNEVVIHPNQGELISCDRDGNIRIWDLGENQCTHQLTPEDDTSLQSLSMASDGSMLAAANTKGNCYVWEMPNHTDASHLKPVTKFRAHSTYITRILLSSDVKHLATCSADHTARVWSIDDDFKLETTLDGHQRWVWDCAFSADSAYLVTASSDHYVRLWDLSTREIVRQYGGHHKGAVCVALNDV | binds | binds | – |
| B1 | binds | – | binds |
